Reference: US20250263470A1
Substitutions are numbered along the chain they refer to.

B1: FBD-56 (antibody, V domains shown)
VH: EVQLVESGGHLVQPGRSLRLSCAASGFTFEDYAMNWVRQAPGKGLEWVSVISWDSGRIGYADSVKGRFTISRDNAKNSSYLQMNSLRPEDTALYYCVRDMLAYYSDNSGKKYNVYGMDVWGQGTTVTVSS
VL: EIVLTQSPATLSLSPGERATLSCRASQSVSTFLAWYQQKPGQAPRLLMYDASNRATGIPARFSGSGSGTDFTLTISSLEPEDFAIYYCQQRSHWPPIFGQGTRLEIK
B2: FBD-94 (antibody, V domains shown)
VH: EVQLVESGGGLVQPGRSLRLSCAVSGFIFEDYAINWVRQAPGKGLEWVSIISWDSGRIGYADSVRGRFTISRDNAKNSSFLQMNSLRPEDTAVYYCVKDMLAYYYDGSGIRYNLYGMDVWGQGTTVTVSS
VL: B1 VL with Q27R, V29I, S30T, M48I, I58V, S76N, E81D, S92D
B3: FBC-39 (antibody, V domains shown)
VH: EVQLVVSGGGLVKPGGSLRLSCAASGLSFLNAWMSWVRQAPGKGLEWVGRIKSNTDGGTTDYAAPVKGRFSISRDDSKNMLFLHMSSLRTEDTAVYYCATDGPYSDDFRSGYAARYRYFGMDVWGQGTTVTVSS
VL: DIQMTQSPSSVSASVGDRVTITCRASQDISTWLAWYQQKPGKAPKLLIYAASSLQSGVPSRFSGSGSGTDFTLTISSLQPEDFATYFCQQANSFPPTFGQGTKLEIK
B4: FBC-39 LTL (antibody, V domains shown)
VH: B3 VH with V6E, S28T, S71T, M80T, F82Y, H84Q, R89K, A99T
VL: B3 VL with F87Y
B5: FBC-39 FSL (antibody, V domains shown)
VH: B3 VH with V6E, L27F, S71T, M80T, F82Y, H84Q, R89K, A99T
VL: B3 VL with F87Y
B6: FBC-39 LSL (antibody, V domains shown)
VH: B3 VH with V6E, S71T, M80T, F82Y, H84Q, R89K, A99T
VL: B3 VL with F87Y
B7: FBC-39 FTL (antibody, V domains shown)
VH: B3 VH with V6E, L27F, S28T, S71T, M80T, F82Y, H84Q, R89K, A99T
VL: B3 VL with F87Y
B8: FBC-39 LTS (antibody, V domains shown)
VH: B3 VH with V6E, S28T, L30S, S71T, M80T, F82Y, H84Q, R89K, A99T
VL: B3 VL with F87Y
B9: FBC-39 FSS (antibody, V domains shown)
VH: B3 VH with V6E, L27F, L30S, S71T, M80T, F82Y, H84Q, R89K, A99T
VL: B3 VL with F87Y

Molecular target: HA of influenza B virus B/Hong Kong/330/2001 (victoria) (influenza B virus B/Hong Kong/330/2001)
Assay: cell-based or functional assay

Binder | Neutralization (Ave IC50 ug/ml) [µg/mL] | Hemagglutination Inhibition Titer [nM]
B1 | 0.038 | 
B2 | 0.021 | 10
B3 | 0.142 | 16
B4 | 0.084 | 
B5 | 0.132 | 
B6 | 0.172 | 
B7 | 0.121 | 

Molecular target: HA of influenza B virus B/Hong Kong/5/72 (influenza B virus B/Hong Kong/5/72)
Assay: cell-based or functional assay

Binder | Neutralization (Ave IC50 ug/ml) [µg/mL] | Hemagglutination Inhibition Titer [nM]
B1 | 0.051 | 
B2 | 0.017 | 3
B3 | 0.026 | 8
B4 | 0.018 | 
B5 | 0.019 | 
B6 | 0.019 | 
B7 | 0.022 | 

Molecular target: HA of influenza B virus B/Lee/40 (influenza B virus B/Lee/40) (UniProt P03460)
Assay: cell-based or functional assay

Binder | Neutralization (Ave IC50 ug/ml) [µg/mL] | Hemagglutination Inhibition Titer [nM]
B1 | 0.004 | 
B2 | 0.009 | 1
B3 | 0.021 | 5
B4 | 0.01 | 
B5 | 0.011 | 
B6 | 0.014 | 
B7 | 0.013 | 

Molecular target: HA of influenza B virus B/Malaysia/2506/2004 (victoria) (influenza B virus B/Malaysia/2506/2004)
Assay: cell-based or functional assay

Binder | Neutralization (Ave IC50 ug/ml) [µg/mL] | Hemagglutination Inhibition Titer [nM]
B1 | 0.058 | 
B2 | 0.023 | 10
B3 | 0.079 | 20
B4 | 0.076 | 
B5 | 0.076 | 
B6 | 0.094 | 
B7 | 0.074 | 

Molecular target: HA of influenza B virus B/Ohio/1/2005 (victoria) (influenza B virus B/Ohio/1/2005)
Assay: cell-based or functional assay

Binder | Hemagglutination Inhibition Titer [nM]
B2 | 10
B3 | 24

Molecular target: HA of influenza B virus B/Shanghai/361/02 (yamagata) (influenza B virus B/Shanghai/361/02)
Assay: cell-based or functional assay

Binder | Hemagglutination Inhibition Titer [nM]
B2 | 0
B3 | 16

Molecular target: HA of influenza B virus B/Sichuan/379/99 (yamagata) (influenza B virus B/Sichuan/379/99)
Assay: cell-based or functional assay

Binder | Hemagglutination Inhibition Titer [nM] | Neutralization (Ave IC50 ug/ml) [µg/mL]
B2 | 5 | 
B3 | 10 | 0.034
B4 |  | 0.023
B5 |  | 0.022
B6 |  | 0.026
B7 |  | 0.023

Molecular target: HA of influenza B virus B/Yamagata/16/88 (yamagata) (influenza B virus B/Yamagata/16/88)
Assay: cell-based or functional assay

Binder | Hemagglutination Inhibition Titer [nM]
B2 | 250
B3 | 11

Molecular target: HA of influenza B virus ca B/Ann Arbor/1/66 (influenza B virus B/Ann Arbor/1/66)
Assay: cell-based or functional assay

Binder | Neutralization (Ave IC50 ug/ml) [µg/mL] | Hemagglutination Inhibition Titer [nM]
B1 | 0.035 | 
B2 | 0.014 | 10
B3 | 0.061 | 6
B4 | 0.023 | 
B5 | 0.034 | 
B6 | 0.027 | 
B7 | 0.026 | 

Molecular target: HA of influenza B virus ca B/Ann Arbor/2/94 (yamagata) (influenza B virus B/Ann Arbor/2/94)
Assay: cell-based or functional assay

Binder | Neutralization (Ave IC50 ug/ml) [µg/mL] | Hemagglutination Inhibition Titer [nM]
B1 | 1.25 | 
B2 | 0.891 | 5
B3 | 0.027 | 6
B4 | 0.023 | 
B5 | 0.023 | 
B6 | 0.033 | 
B7 | 0.023 | 

Molecular target: HA of influenza B virus ca B/Beijing/243/97 (victoria) (influenza B virus B/Beijing/243/97)
Assay: cell-based or functional assay

Binder | Neutralization (Ave IC50 ug/ml) [µg/mL] | Hemagglutination Inhibition Titer [nM]
B1 | 0.016 | 
B2 | 0.005 | 10
B3 | 0.218 | 14
B4 | 0.152 | 
B5 | 0.195 | 
B6 | 0.182 | 
B7 | 0.134 | 

Molecular target: HA of influenza B virus ca B/Brisbane/60/2008 (victoria) (influenza B virus B/Brisbane/60/2008)
Assay: cell-based or functional assay

Binder | Neutralization (Ave IC50 ug/ml) [µg/mL] | Hemagglutination Inhibition Titer [nM]
B1 | 0.01 | 
B2 | 0.006 | 4
B3 | 0.238 | 20
B4 | 0.151 | 
B5 | 0.08 | 
B6 | 0.1 | 
B7 | 0.098 | 

Molecular target: HA of influenza B virus ca B/Georgia/02/98 (yamagata) (influenza B virus B/Georgia/02/98)
Assay: cell-based or functional assay

Binder | Hemagglutination Inhibition Titer [nM]
B2 | 8
B3 | 16

Molecular target: HA of influenza B virus ca B/Johannesburg/5/99 (yamagata) (influenza B virus B/Johannesburg/5/99)
Assay: cell-based or functional assay

Binder | Neutralization (Ave IC50 ug/ml) [µg/mL] | Hemagglutination Inhibition Titer [nM]
B1 | 0.021 | 
B2 | 0.012 | 10
B3 | 0.304 | 18

Molecular target: HA of influenza B virus ca B/Victoria/504/2000 (yamagata) (influenza B virus B/Victoria/504/2000)
Assay: cell-based or functional assay

Binder | Hemagglutination Inhibition Titer [nM]
B2 | 8
B3 | 16

Molecular target: HA of influenza B virus ca B/Yamanashi/166/98 (yamagata) (influenza B virus B/Yamanashi/166/98)
Assay: cell-based or functional assay

Binder | Neutralization (Ave IC50 ug/ml) [µg/mL] | Hemagglutination Inhibition Titer [nM]
B1 | 0.133 | 
B2 | 0.012 | 10
B3 | 0.039 | 13
B4 | 0.01 | 
B5 | 0.009 | 
B6 | 0.014 | 
B7 | 0.007 | 

Molecular target: recombinant HA derived from influenza A subtype H9 (A/chicken/HK/G9/97 (H9N2)) (influenza A virus A/chicken/Hong Kong/G9/97 (H9N2))
Assay: ELISA on coated recombinant H9 HA

Binder | EC50 [µg/mL]
B3 | 6.2
B4 | 6.3
B6 | 41.7
B7 | 46.1

Molecular target: recombinant HA derived from Victoria lineage strain B/BNE/08 (B/Brisbane/60/2008) (influenza B virus B/Brisbane/60/2008)
Assay: ELISA on coated recombinant HA, unpurified IgG

Binder | EC50 [µg/mL]
B3 | 0.186
B4 | 0.114
B5 | 0.273
B8 | > 1
B9 | > 1
B6 | 0.152
B7 | 0.118

Molecular target: recombinant HA derived from Yamagata lineage strain B/FLA/06 (B/Florida/4/2006) (influenza B virus B/Florida/4/2006)
Assay: ELISA on coated recombinant HA, unpurified IgG

Binder | EC50 [µg/mL]
B3 | 0.022
B4 | 0.017
B5 | 0.014
B8 | 0.013
B9 | 0.019
B6 | 0.021
B7 | 0.017

Molecular target: recombinant HA derived from Victoria lineage strain B/BNE/08 (B/Brisbane/60/2008) (influenza B virus B/Brisbane/60/2008)
Assay: ELISA on coated recombinant HA, average of three experiments

Binder | EC50 [µg/mL]
B1 | 0.03
B2 | 0.016
B3 | 0.048

Molecular target: recombinant HA derived from Yamagata lineage strain B/FLA/06 (B/Florida/4/2006) (influenza B virus B/Florida/4/2006)
Assay: as above

Binder | EC50 [µg/mL]
B1 | 0.024
B2 | 0.013
B3 | 0.02
